From the nanobody polyreactivity screen of Harvey et al. (2022)

Assay: yeast display, Sf9 membrane polyspecificity reagent, FACS + sequencing; frameworks hold sequencing errors
Procedure, shortened: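 After 36–48 hours of galactose induction, yeast (Saccharomyces cerevisiae BJ5465) displaying a synthetic nanobody library were stained at 4 °C for 1 hour with 10% biotinylated, detergent-solubilized Sf9 membrane reagent. Streptavidin microbeads enriched the stained cells before FACS sorting into low and high (top ~1%) gates on anti-HA and streptavidin fluorescence. Each clone's polyreactivity label reflects its gate of origin.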

| Sequence | polyreactivity (PSR sort gate) |
| --- | --- |
| QVQHVESGGGLVQAGGSLRLNCAASGSTFFGNAMGWYRQAPGKERELVAAISGSGGSTYYADSVKGRFTISRDNAKNTVYLQMNSLKPEDTAVYYCAKYYLTGLARYDYWGQGTQVTVSS | high polyreactivity |
| QVQLVESGGGLVQAGGSLRLSCAASGRIFDGNAMGWYRQAPGKERELVAAISWTGGSTYYADSVKGRFTISRDNAKNTVYLQMNSLKPEDTAVYYCAADSGWWLDQWSWYDYWGQGTQVTVSS | low polyreactivity |
| QVQLVESGGGLVQAGGSLRLSCAASGIIFGRYAMGWYRQAPGKERELVAAITRGGSTKYADSVKGRFTISRDNAKNTVYLQMNSLKPEDTAVYYCARVRRYPLRYNYWGQGTQVTVSS | high polyreactivity |
| QVQLVESGGGLVQAGGSLRLSCAASGSIFRYNAMGWSRQAPGKEREFVAAISYSGGRTYYADSVKGRFTISRDNAKNTVYLQMNSLNPEDTAVYYCNAQYASGRSYFFYWHRYDYWGQGTQVTVSS | high polyreactivity |
| QVQLVESGGGLVQAGGSLRLSCAASGFTIHYNAMGWYRQAPGKERELVATISKSAGITSYADSVKGRFTISRDNAKNTVYLLMNSLKPEDTAVYYCAADKSYRRVYYWGQGTQVTVSS | low polyreactivity |
| QVQLVESGGGLVQAGGSLRLSCAASGSIFGWYAMGWYRQAPGKEREFVATISRRGGRTYYADSVKGRFTISRDNAKNTVYLQMNSLKPEDTAVYYCAANSVYKEDYWGQGTQVTVSS | high polyreactivity |
| QVQLVESGGGLVQAGGSLRLSCAASGSTFYPYAMGWYRQAPGKERELVAAISSSGGSTYYADSVKGRFTISRDNAKNTVYLQMNSLKPEDTAVYYCNADVHSQYDYWGQGTQVTVSS | low polyreactivity |
| QVQLVESGGGLVQAGGSLRLSCAASGSIFGGYAMGWYRPAPGKERELVASITKSGDSTYADSVKGRFTISRDNAKNTVYLQMNSLKPEDTAVYDCAADSTFGKFEYWGQGTQVTVSS | low polyreactivity |
| QVQLVESGGGLVQAGGSLRLSCAASGFIFDSYAMGWYRQAPGKVRELVATISRRGSSTYYADSVKGRFTISRDNAKNTVYLQMNSLKPEDNAVYYCAAGSISYYYKLYWGGYWGQGTQVTVSS | high polyreactivity |
| QVQLVESGGGLVQAGGSLRLSCAASGRTFRYNAKGSYIQAPGKERELVAAINWNGGSTYYADSVKGSFTISRDNAKNTVYLQMNSLKQEDTAVYYCNADFYHRYDWGQGTQVSVSS | high polyreactivity |
| QVQLVESGGGLVQAGGSLRLTCAASGFTFDTYAMGWYRQAPGKEREFVATISRNSGSTYYADSVKGRFTIARDNAKNTVYLQMNSLKPEDTAVYYCNRRRYGRKSDRMNYWGQGTQVTVSS | high polyreactivity |
| QVQLVESGGGLFHAGGSLRLSCAASGSTFAYYAMGWYIQAPGKERELVAGISGSGGSTYYADSVKGRFTISRDNAKNTVYLQMKSLKPEDNAVYYCAVVQRSKRTYPWYDYWGQGTQVTVCS | low polyreactivity |
| QFQLVESGGGLVQAGGSLRLSCAASGVIFEWYTMGWYRQAPGKERELVARISSDGSTTYADSVKGRFTLSRDNAKNTVYFEMNSLKREDTAVYYCAADVSYPGLKYIFDYWGQGTLVTVSS | low polyreactivity |
| QVQLVESGGGLVQAGGSLRLSCADSGSIFGYNAMGWYRQAPGKEREFVAAISWSGGRTYYADSVKGRFTISRDNAKNTVYLQMNSLKPEDTAVYYCAAPSRPAPRFDYWGQGTQVTVSS | low polyreactivity |
| QVQLVESGGGLVQAGGSLRLSCAASGSTFSLYAMGWYRQSPGKETELVASITWGGGSTYADSVKRLFTISRDNAKNTVYLQMNSLKPEDPAVYYCARKYRYRVLYDFAYDHWGQGTEVTVSS | low polyreactivity |
| QVQLVESGGGLVQAGGSLRLSCAASGFTFVRYAMGWYRQAPGKESEFVASISARGGNTFYADSVKGRFTISRDNAKNTVYLQMNSLKPEDTAVYYCAKPGPYGTGYGYWGQGTQVTVSS | high polyreactivity |
| QVQLVESGGGLVQAGGSLRLSCAASGFTLAYYAMGWYRQAPGKERELVATISRRGGSTNYADSVKGRFTISRDNAKNTVYLQMNSLKPVDTAVYYCARTLYRGKSYHGHSKYDYWGQGTQVTVSS | high polyreactivity |
| QVQLVESGGGLVQAGGSLRLSCAASGRTFRRTAMGWYRQAPGKERELVAAISSRGGSTYYADSVKWRFTISRDNAKNTVYLQMNSLKPEDTAVYYCNRVLTPIWYYVPLYSQPTYYYWGQGTQVTVSS | high polyreactivity |
| QVQLVESGGGLVQAGGSLRLSGAASGSIFYSNARGWYRQAPGKERELVAAITVGGGRTYYADSVKGRFTISRDNAKNTVYLQMNSLKPEDTAVYYCAADSHASTYDYWGQGTQVTVSS | low polyreactivity |
| QVQLVESGGGLVQAGGSLRLSCAASGSIFFINAMGWYRQAPGKERELVAAIRRGGSTYADSVKGRFTISRDNAKNTVYLQMNSLKPEDTAVYYCAARITWGATAKSRYSYLYDYWGQGTQVTVSS | high polyreactivity |
| QVQLVDSGGGLVQAGGRLRLSCAASGITFYYNAMGWYRQAPGKERELVATISSRGGSTYYADSVKGRFTISRDNAKNTVYLQMNSLKPEDTEVYYCNAGRSRYRWSTTGYTQVRDDYWGQATQVTVSS | high polyreactivity |
| QVQLVESGGGIVQAGGSLRLSCAASGFTFFIYTMGWYRQAPGKERELVAAIRSRTGSTYYADSVKGRITISRDNAKNTVYLQMNSLKPDDTAVYYCAATRVRSASYSIEYDYWGQGTQVTVSS | high polyreactivity |

| Sequence | polyreactivity (PSR sort gate) |
| --- | --- |
| QVQLVESGGGLVQAGGSLLLSCSASGRIFGVNAMGGYRQAPGKERELVAAISAGGGNTYYADSVKGRFTISRDNAKNTVYLQMNSLKPEDTAVYYCNVQRSLRMDYWGQGTQVTVSS | high polyreactivity |
| QVQLVESGGGLVQAGGSLRLSCAASGMTFDYYAMGWYRQAPGKERELVAAIRSGGSTNYADSVKGRFTISRDNAKNTVYLQMNSLKPEDTAVYYCAAVRYFPWYDYWGQGTQVTVSS | high polyreactivity |
| QVQLQQSGGGLVQAGGSLRLSCAASGSIFDGFNMGWYRQAPGKAREFVAAIRYGASTYYADSVKGRFTVSRDNAKNSVYLQMNSLNPEDTAVYYCAKAYSDGYFPTFDYDYWGQGTQVTVSS | low polyreactivity |
| QVQLVESGGGLVQAGGSLRLICAASGRTFRYYAMGWYRQAPGKERELVASISDGGSTNYADSVKGRFTISRDNAKNTVYLQMNSLKPEDTAVYYCNAKAYVWYLYDEFGYWGQGTQVTVSS | low polyreactivity |
| QVQLVESGGGLVQAGGSLRLSCAASGLTFRYYAMGWDRPAPGKERELVAAITASVGSTYYADSVKGRFTISRDNAKNTVYLQMNSLNPEDTAVYYCNADLSYFFGPYWGLYGLDYWGQGTQVTVSS | low polyreactivity |
| QVQLEESGGGLVQAGCSLRLTCAASGSTFYSYPMGWSRQAPGKERELVAAITVSGTSTYYADSVKGRFTISRDNAKNTVYLQMYSVKPEDTAVYYCAADRRTDGHDYWGQGTQVTVSS | high polyreactivity |
| QVQLVESGGGLVQAGGSLRLSCAASGRIFFRYTMGWYRQAPGKESELVAAITKRGGTYYADSVKGRFTISRDNAKNTVYLQMNSLKPEDTAVYYCNAVRYGINSYTYRRGYWGQGTQVTVSS | high polyreactivity |
| QVQLVESGGGLVQAGGSLRLSCAASGSIFTLYAMGWYIQAPGKEREFVAGMSFSTGRTYYADSVKGRFTISRDNAKNTVYLQMHSLTPEDTAGYYCAAYVSHYWYGLYRDGYWGQGTQATVSS | low polyreactivity |
| QVQLVESGGGLVQAGGSLRLICAASRFYTMGWYRQATVKERELVAAISWSGGDTYYADSVKGRFTISRDNAKNTVYLQMNSLKPEDTAVYYCAKKTIGSYVHEPFYYWGQGTQVTVSS | low polyreactivity |
| QVQLVESGGGLVQAGGSLRLSCAASGLTFVPNAMGWSRQAPGKERELVAGITSAGSTYYADSVKGRFTISRDNAKNTVYLQMNSLKPEDSAVYYCAKQFYRGFRYGYWGQGTQVTVSS | high polyreactivity |
| QVHLVESGGGLVKAGGSLRLSCAASGRIFYTYAMGWYRQAPGKERELVAAISRSGGRTYYADSVKGRFTISRDNGKNTVYLQMNSLKPEDNAVYYCNAVENWLFSSHDYWGQGTQVTVSS | low polyreactivity |
| QVQLVESGGGLVQAGGSLRLSCAASGSIFVIYALGWYRQAPGKERELVARITKSGGTTYYADSVKGRFTISRDNAKNTVYLQMNSLKPDDTAVYYCNVGYGGSSDGGYDYWGQGTQVTVSS | high polyreactivity |
| QVQLVESGGVLVQAGGSLRLSCAASGSTFRRYAMGWYRQAPGKERELVAAITTRGGSTYYADSVKGRFTISRDNAKNTVYLQMNSLKPEDTAVYYCARDYSTYLRTAGDYWGQGTQVTVSS | low polyreactivity |
| QVQLVETGGGLVQAGGSLRLRGAASGSTNYNYAMGWYRQAPGKERELVAAISISGGSPYYADSVKGRFTISRDNANNTVYLQMYSLKAEDTAVYYCAAVRLGSRGGYCGQGTQVTVSS | high polyreactivity |
| QDQHVESGGGLDQAGGSLRLSCAASGRTIRSYAMGGYRPAPRKESELVAAISSRGGNTYYADSVKGRFTISRDNAKYTVYLQMNSLKPEDTAVYYSNRVRYGVPLIVGDDYWGQGTQVTVSS | high polyreactivity |
| QVQLEESGGGLVQAGGSLRLSWAASGSTFSVNAMGWYRQAPGKERELVARITNGGSTYYADSVKGRFTISRDNAKNTVYLQMNSLKPEDTAVYYCAAKLGSYIYHKQRDWGQGTQVTVSS | low polyreactivity |
| QVQLVESGGGLVQAGGSLRLSCAASGFTYPANAMGWYRQAPGKERELVASISGSGGRTYYADSVKGRFTISRDNAQNTVYLQMNSLKPEDTAVYYCNRYSYWYRGEYGYWGQGTQVTVSS | high polyreactivity |
| QVQLVESGGGLVQAGGSLRLSCAASGSIFGYNDMGCYRQAPGKEREMVAAITTSGDSTYYADSVKGRFTISRDNAKNTVYLQMNSLKPEDTAVYYCNADGEVVDWYHPYYVEYDYWGQGTQVTVSS | low polyreactivity |
| QVQLVESGGGLVQAGGSLRLTCAASGFTINFYAMGGYRQAPGKERELVAAITASGGGSTYYADSVKGRFTISRDNAKNTVYLQMNSLKPEDTAVYYCNADYTGSFYTYDYWGQGTQVTVSS | low polyreactivity |
| QVQLVESGGGLVQAGGSLRLSCAASGSTFTGNAMGWYRQAPGKERELVASINGSSGSTYYADSVKGRFTISRDNAKNTVYLQMNSLKPEDTAVYYGAKDSFLHFPRVGWVGLEYWGQGTQVTVSS | low polyreactivity |
| QVQLVESAGGLVQAGGSLRLSCPASGRTFFPYAMGWYRQPPGQEREFVAAITNTDDSTYYADSVKGRFTISRDNAKNTVYLQMNSLKPEDTAVYYCNAGDTQIRFYYWGQGSQVTVSS | low polyreactivity |
